Substitutions are numbered along the chain they refer to. Numbers in names are those of the source. Where two headings read alike, the source gives them in different places.
T1: 人IL-18Rβ蛋白 (IL-18Rβ antigen) (human)
T1 sequence (O95256 whole entry, species assumed, looked up): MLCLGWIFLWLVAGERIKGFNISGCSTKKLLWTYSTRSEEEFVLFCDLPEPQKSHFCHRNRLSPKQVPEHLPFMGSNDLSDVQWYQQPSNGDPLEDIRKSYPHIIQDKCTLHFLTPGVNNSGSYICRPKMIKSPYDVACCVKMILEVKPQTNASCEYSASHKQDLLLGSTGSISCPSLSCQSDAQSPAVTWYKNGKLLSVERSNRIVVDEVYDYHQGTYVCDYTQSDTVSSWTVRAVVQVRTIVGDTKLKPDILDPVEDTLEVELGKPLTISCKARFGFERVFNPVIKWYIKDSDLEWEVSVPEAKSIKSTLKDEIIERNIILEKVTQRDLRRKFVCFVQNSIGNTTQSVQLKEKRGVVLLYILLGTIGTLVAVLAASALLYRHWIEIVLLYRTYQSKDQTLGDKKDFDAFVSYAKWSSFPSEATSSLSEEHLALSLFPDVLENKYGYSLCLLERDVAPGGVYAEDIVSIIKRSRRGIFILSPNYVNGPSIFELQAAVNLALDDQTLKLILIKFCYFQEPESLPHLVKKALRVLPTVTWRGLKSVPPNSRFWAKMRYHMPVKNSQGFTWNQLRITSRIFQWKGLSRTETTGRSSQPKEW

T2: 人IL-18Rβ蛋白 (IL-18Rβ antigen) (human)
T2 chain: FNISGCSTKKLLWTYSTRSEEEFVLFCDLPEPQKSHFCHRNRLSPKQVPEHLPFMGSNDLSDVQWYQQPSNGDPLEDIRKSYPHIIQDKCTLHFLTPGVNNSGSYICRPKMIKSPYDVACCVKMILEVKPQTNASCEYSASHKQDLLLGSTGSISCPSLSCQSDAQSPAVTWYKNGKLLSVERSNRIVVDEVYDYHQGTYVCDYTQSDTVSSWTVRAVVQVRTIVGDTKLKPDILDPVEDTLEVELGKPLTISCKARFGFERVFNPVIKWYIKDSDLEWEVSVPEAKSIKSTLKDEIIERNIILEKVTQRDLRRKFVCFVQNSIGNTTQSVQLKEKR

T3: IL-18Rβ on KG-1 cells and human PBMC (human, UniProt O95256 20-599)
T3 sequence (looked up): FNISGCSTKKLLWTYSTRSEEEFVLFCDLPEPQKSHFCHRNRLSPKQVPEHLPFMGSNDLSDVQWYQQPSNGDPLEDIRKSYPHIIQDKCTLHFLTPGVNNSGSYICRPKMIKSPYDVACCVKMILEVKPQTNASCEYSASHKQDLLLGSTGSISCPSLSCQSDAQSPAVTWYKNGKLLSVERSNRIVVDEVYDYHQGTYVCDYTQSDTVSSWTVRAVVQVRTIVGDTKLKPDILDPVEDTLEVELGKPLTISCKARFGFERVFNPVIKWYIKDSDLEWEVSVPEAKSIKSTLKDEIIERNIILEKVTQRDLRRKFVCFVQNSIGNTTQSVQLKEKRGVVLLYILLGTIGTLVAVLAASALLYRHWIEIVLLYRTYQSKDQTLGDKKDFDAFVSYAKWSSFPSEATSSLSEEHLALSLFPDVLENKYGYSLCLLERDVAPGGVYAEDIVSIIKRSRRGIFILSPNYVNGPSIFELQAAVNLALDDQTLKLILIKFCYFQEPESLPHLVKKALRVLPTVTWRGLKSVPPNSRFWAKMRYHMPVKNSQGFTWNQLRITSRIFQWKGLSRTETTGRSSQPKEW

B1: C056-WT Fab (wild-type anti-IL-18Rβ antibody) (Fab, V domains shown)
VH: EVQLVESGGGLVQPGGSLRLSCAASGFNLYYSSMHWVRQAPGKGLEWVASIYSSNGRTYYADSVKGRFTISADTSKNTAYLQMNSLRAEDTAVYYCARSSFSHGYGWYGLDYWGQGTLVTVSS
VL: DIQMTQSPSSLSASVGDRVTITCRASQSVSSAVAWYQQKPGKAPKLLIYSASSLYSGVPSRFSGSRSGTDFTLTISSLQPEDFATYYCQQYGYHDAGLITFGQGTKVEIK
B2: A039 Fab clone (Fab, V domains shown)
VH: B1 VH with F27I
VL: B1 VL with A34D
notes: Mutations against C056-WT: VL-A34D/VH-F27I
B3: A035 full-length IgG (antibody, V domains shown)
VH: B1 VH with F27I, S99A
VL: B1 VL with S31F, A34E
B4: A037 full-length IgG (antibody, V domains shown)
VH: B1 VH with F27L
VL: B1 VL with S31F, A34D
B5: A037 Fab clone (Fab, V domains shown)
VH: B1 VH with F27L
VL: B1 VL with S31F, A34D
notes: Mutations against C056-WT: VL-S31F/VL-A34D/VH-F27L
B6: A036 Fab clone (Fab, V domains shown)
VH: B1 VH with F27I, S99A
VL: B1 VL with A34D
B7: A040 Fab clone (Fab, V domains shown)
VH: B1 VH with F27L
VL: B1 VL with A34E
B8: A035 Fab clone (Fab, V domains shown)
VH: B1 VH with F27I, S99A
VL: B1 VL with S31F, A34E
notes: Mutations against C056-WT: VL-S31F/VL-A34E/VH-F27I/VH-S99A
B9: A038 Fab clone (Fab, V domains shown)
VH: B1 VH with F27I
VL: B1 VL with A34E
notes: Mutations against C056-WT: VL-A34E/VH-F27I
B10: A041 Fab clone (Fab, V domains shown)
VH: B1 VH with F27V, S99A
VL: B1 VL with S31F, A34D
B11: A042 Fab clone (Fab, V domains shown)
VH: B1 VH with F27L, S99A
VL: B1 VL with A34E
B12: A039 full-length IgG (antibody, V domains shown)
VH: B1 VH with F27I
VL: B1 VL with A34D
B13: C056-WT full-length antibody (parental antibody WT) (antibody, V domains shown)
VH: B1 VH
VL: B1 VL

Assays:
[1] = biological target: T1, 人IL-18Rβ蛋白 (IL-18Rβ antigen) (human); test: SPR (Biacore 8K), Fab captured; ratio of kd, the reference itself
[2] = biological target: T1, 人IL-18Rβ蛋白 (IL-18Rβ antigen) (human); test: SPR (Biacore 8K), secreted Fab captured on SASA sensor, antigen injected, 1:1 fit
[3] = biological target: T2, 人IL-18Rβ蛋白 (IL-18Rβ antigen); test: as above
[4] = biological target: T2, 人IL-18Rβ蛋白 (IL-18Rβ antigen); test: SPR (Biacore 8K), Fab captured; ratio of kd of C056-WT to kd of the clone
[5] = biological target: T3, IL-18Rβ on KG-1 cells and human PBMC; test: cell-based or functional assay
[6] = biological target: T1, 人IL-18Rβ蛋白 (IL-18Rβ antigen) (human); test: SPR (Biacore 8K), antibody captured on protein A chip, human IL-18Rβ 6.25-400 nM injected, 25°C

Binder | Kd [3] | koff [3] | kon [3] | 比值(kd) [4] | IC50(nM), inhibition of IL-18-stimulated IFN-γ release in KG-1 cells [5] | also measured
B1 |  |  |  |  |  | 比值(kd) [1]: 1; Kd [2]: 17.8 nM; koff [2]: 0.00119 s⁻¹; kon [2]: 66600 M⁻¹ s⁻¹
B2 | 0.26 nM | 3e-05 s⁻¹ | 115000 M⁻¹ s⁻¹ | 39.7 |  | 
B3 |  |  |  |  | 0.26 nM | potency relative to WT antibody, KG-1 IFN-γ assay [5]: ~20 fold
B4 |  |  |  |  | 0.27 nM | potency relative to WT antibody, KG-1 IFN-γ assay [5]: ~20 fold
B5 | 0.00847 nM | 1e-06 s⁻¹ | 118000 M⁻¹ s⁻¹ | 1190 |  | 
B6 | 0.648 nM | 6.91e-05 s⁻¹ | 107000 M⁻¹ s⁻¹ | 17.2 |  | 
B7 | 1.04 nM | 8e-05 s⁻¹ | 77000 M⁻¹ s⁻¹ | 14.9 |  | 
B8 | 0.224 nM | 3.19e-05 s⁻¹ | 143000 M⁻¹ s⁻¹ | 37.3 |  | 
B9 | 0.725 nM | 5.67e-05 s⁻¹ | 78200 M⁻¹ s⁻¹ | 21 |  | 
B10 | 0.415 nM | 6.35e-05 s⁻¹ | 153000 M⁻¹ s⁻¹ | 18.7 |  | 
B11 | 1.34 nM | 0.000106 s⁻¹ | 79000 M⁻¹ s⁻¹ | 11.2 |  | 
B12 |  |  |  |  | 0.59 nM | potency relative to WT antibody, KG-1 IFN-γ assay [5]: ~20 fold
B13 |  |  |  |  | 8.14 nM | Kd [6]: 15.8 nM
